Consider three molecules from paper PMC9820559, “Investigation of the Fuzzy Complex between RSV Nucleoprotein and Phosphoprotein to Optimize an Inhibition Assay by Fluorescence Polarization” (International Journal of Molecular Sciences, 2022).

One experiment addresses T1, RSV N-RNA complex (Human respiratory syncytial virus A, UniProt P03418).
T1 construct: Full-length N was produced by co-expression with the C-terminal domain of RSV P protein in E. coli BL21(DE3); made in house; host or cells: E. coli BL21(DE3), co-transformed with pET-N and pGEX-P(161–241)
Put plainly: Fluorescence polarization inhibition of N-RNA binding to fluorescent probes. The note with it: Ki, probe BCN11EE, [N-RNA] 1 µM; IC50-to-Ki server. An excerpt:
We next performed inhibition experiments for the F11-(N-RNA) complex by M76 (Figure 4B). FP values decreased with increasing competitor concentration. At saturation, FP nearly reached the value of free F11, showing that the F11 peptide could be nearly completely displaced. Since the same concentration range was used for NNTD and N-RNA, poor solubility of M76 can be ruled out to explain the saturation observed before complete displacement of F11 in the presence NNTD (Figure 3C). This reinforces the hypothesis of a second binding site on NNTD, outside the canonical P-binding site. […]
To probe the potency of M76 as an inhibitor, we carried out competition experiments with the M76 molecule and several BCNn peptides. M76 was able to displace the fluorescent probes from N-RNA, and inhibition curves were obtained (Figure 8E). Since we used different N concentrations to have similar dynamic ranges of FP for the series of fluorescent peptides, we cannot directly compare M76 IC50s. However, Kis may be compared.
Fluorescence polarization measurements were carried out on a Paradigm Detection Platform (Beckman Coulter, Brea, CA, USA) operating with a microplate reader, a fluorescein detection cartridge (excitation range 485/20 nm, emission range 535/25 nm for both parallel and perpendicular components) and the SpectraMax Pro 6.1 software (Molecular Devices, San Jose, CA, USA). Samples were placed in polystyrene black flat bottom 96-well microplates (Cellstar, Greiner bio-one, Frickenhausen, Germany) with 20 µL final volume in each well. If not stated otherwise, the final concentration of fluorescent ligands was 200 nM. The buffer was either 20 mM MES pH 6.5, salt-free or with 250 mM NaCl, or 20 mM Tris pH 8.0 salt-free or with 100 mM NaCl, supplemented with 0.01% Brij-35. Mixing was done using the corresponding plate reader option. The temperature was set to 20 °C. Data were recorded in top reading mode. Measurements were done in triplicate and after an incubation time of 30 min, if not indicated otherwise. Fluorescence polarization (FP) in mFP units was determined from the parallel (I∥) and perpendicular (I⊥) components of the emitted light according to Equation (4). A grating factor G of 1.2 was determined using 1 nM fluorescein in 1 mM NaOH and assuming a theoretical FP of 27 mFP [48]. Background signal was measured from wells containing only buffer, and the mean value was subtracted from each I∥ and I⊥ component. (4) FP (mP)=1000×(I∥−G∗I⊥)/(I∥+G×I⊥)
To assess inhibition of a complex between a fluorescent probe and N protein by peptides or the M76 molecule, the concentration of N was set to work with an FP range comprised between FPmin and ~80% FPmax. Peptides were added from 1 or 2 mM stock solution in water at neutral pH. M76 was added from 10 or 20 mM stock solutions in ethanol or in DMSO. […] Inhibition data were fitted with Origin 7, and in parallel with the Excel solver module. All data were compatible with an absence of cooperativity. FPmax and FPmin were fitted, and the maximal inhibition %i,max was set to 100%. (11) %i=100×[1−(FP−FPmin)/(FPmax−FPmin)] (12) %i=%i,max×[inhibitor]/[inhibitor]+IC50
Inhibition constants Ki were calculated on the IC50-to-Ki converter for a protein-ligand-inhibitor system (https://bioinfo-abcc.ncifcrf.gov/IC50_Ki_Converter/index.php, accessed on 24 August 2022), assuming a competitive mechanism (Equation (13)). This tool takes into account the free concentrations of protein and ligand. (13) Ki=(IC50−[protein]/2)/([peptide]/Kd+1)

For the next experiment, the target named is T2, RSV NNTD (Human respiratory syncytial virus A, UniProt P03418).
T2 construct: The N-terminal domain NNTD (residues 31–252), containing a C-terminal 6x histidine tag; 6xHis (C); made in house; host or cells: E. coli BL21(DE3)
Kind of experiment: NMR titration of 15N-labeled NNTD (1H-15N HSQC chemical shift perturbations). Type of experiment: binding. Conditions: 20 mM MES pH 6.5, 250 mM NaCl, 20 °C; single site model; mean of 26 individual values; read-out: mean Kd from residue-specific Kds. An excerpt:
Here, as P protein is constitutively phosphorylated on Ser232 and Ser237 residues in cells, we first investigated the impact of phosphorylation on the affinity of the NNTD-PCtail complex. We performed an NMR titration experiment by adding increasing amounts of pP11 peptide, where Ser232 and Ser237 residues were replaced by O-phosphoserines (pSer, Figure 1A), to a solution of ^15N-labeled NNTD, and measured 2D ^1H-^15N HSQC spectra (Figure 2A). We worked in the same buffer as with P12. At pH 6.5, the pSer sidechains are expected to be mostly negatively charged. Addition of pP11 induced perturbations in the HSQC spectrum of NNTD, in particular chemical shift perturbations (CSPs). […] We measured combined ^1H and ^15N amide CSPs (Equation (1)) for NNTD signals in a fast chemical exchange regime, i.e., signals that shifted in the spectrum without broadening at intermediate titration points (e.g., Ile129 in Figure 2A). Significant CSPs were located in and around the P-binding pocket, confirming that pP11 binds to the previously determined P-binding epitope on NNTD (Figure 2B,C). […]
Overall, signals of bound NNTD were broader than those of unbound NNTD (Figure 2A). […] From chemical shift differences measured for these residues we determined an exchange rate kex of ~800 s^−1 (from Equation (3)) between free and bound NNTD, which indicates a fast dynamic process. […]

Experiment [1] has as its target T3, RSV nucleoprotein N-terminal domain NNTD (residues 31–252) (human respiratory syncytial virus, UniProt P03418 31-252).
T3 construct: N-terminal domain of human RSV nucleoprotein N, residues 31-252; 15N-labelled for the NMR titration; also called N(31–252); 15N-NNTD; source: E. coli BL21(DE3), pET-N(31–252), purified as described previously [21]
T3 sequence (looked up): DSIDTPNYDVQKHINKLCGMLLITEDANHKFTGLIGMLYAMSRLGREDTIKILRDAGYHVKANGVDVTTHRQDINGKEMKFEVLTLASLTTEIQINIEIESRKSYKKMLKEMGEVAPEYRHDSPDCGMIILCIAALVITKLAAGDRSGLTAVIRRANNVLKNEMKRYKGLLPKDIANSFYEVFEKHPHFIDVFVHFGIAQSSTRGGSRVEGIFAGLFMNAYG
Put plainly: fluorescence polarisation; 200 nM F11, NNTD 0.1–120 µM; 20 mM MES pH 6.5, 250 mM NaCl, 0.01% Brij-35; 20 °C; single site model; saturation not reached. The note with it: both partners purified.

Experiment [2] concerns the target T3, RSV nucleoprotein N-terminal domain …. Put plainly: fluorescence polarisation; 200 nM F11, NNTD varied; 20 mM MES pH 6.5 without salt, 0.01% Brij-35; 20 °C; single site plus a linear contribution. The note with it: both partners purified.
For experiment [3], the target named is T4, RSV N-RNA complex (full-length N protein in ring-shaped complexes with bacterial RNA) (human respiratory syncytial virus, UniProt P03418 1-391).
T4 construct: human RSV nucleoprotein N, full length; concentrations are of N protomer; also called N-RNA rings; source: in lysate for the co-purification; purified (glutathione-Sepharose, thrombin, Superdex 200) as N-RNA complex; copies: 10-11
T4 sequence (looked up): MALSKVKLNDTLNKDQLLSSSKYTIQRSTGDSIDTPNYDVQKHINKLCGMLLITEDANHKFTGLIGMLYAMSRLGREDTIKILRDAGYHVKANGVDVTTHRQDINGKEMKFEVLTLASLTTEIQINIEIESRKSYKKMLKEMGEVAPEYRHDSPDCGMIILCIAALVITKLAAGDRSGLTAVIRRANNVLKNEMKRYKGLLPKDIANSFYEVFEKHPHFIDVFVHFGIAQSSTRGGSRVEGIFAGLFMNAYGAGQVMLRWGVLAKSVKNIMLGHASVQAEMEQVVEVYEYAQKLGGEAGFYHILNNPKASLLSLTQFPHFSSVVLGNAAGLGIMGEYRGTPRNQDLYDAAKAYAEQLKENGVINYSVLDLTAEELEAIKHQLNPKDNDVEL
Kind of experiment: fluorescence polarisation; competition: unlabeled pP11 varied against 200 nM BCN_(11EE) on 1 µM N-RNA; Tris pH 8 buffer; Hill equation; Ki from the IC50-to-Ki server. The note with it: both partners purified.

Square brackets hold non-standard residues; d marks the D form. Ends that are not written are not given here. Peptide text beside a SMILES is read from it. * marks the point of attachment. FITC = O=C1OC2(c3ccc(O)cc3Oc3cc(O)ccc32)c2ccc(NC(=S)*)cc21; pS = N[C@@H](COP(=O)(O)O)C(=O)O

Take `CC(C)C[C@H](NC(=O)[C@H](COP(=O)(O)O)NC(=O)[C@H](CC(C)C)NC(=O)[C@H](CC(=O)O)NC(=O)[C@H](CC(N)=O)NC(=O)[C@H](CC(=O)O)NC(=O)[C@H](COP(=O)(O)O)NC(=O)[C@@H](N)CC(=O)O)C(=O)N[C@@H](CCC(=O)O)C(=O)N[C@@H](CC(=O)O)C(=O)N[C@@H](Cc1ccccc1)C(=O)O` [pP11] (H-D[pS]DNDL[pS]LEDF-OH): the Ki on RSV N-RNA complex turned out to be 1.4 µM. In addition, the equilibrium dissociation constant (Kd) on RSV NNTD came out at 17 ± 4.5 µM.

B1: F11 (fluorescein-5-thiourea-labelled RSV P11 peptide) (peptide)
peptide: {FITC}-DSDNDLSLEDF
notes: C-terminal 11 residues of RSV phosphoprotein P; also called F_(11SS); FTU-P11; source: bought P11 peptide (GeneCust), FITC coupled in solution, HPLC purified
As for B1, the equilibrium dissociation constant (Kd) in experiment [1] amounted to 90 ± 15 µM; in experiment [2] it was 0.6 ± 0.1 µM.

B2: pP11 peptide (RSV P C-terminal 11-mer with O-phosphoserines at 232 and 237) (peptide)
peptide: D[pS]DNDL[pS]LEDF
notes: C-terminal 11 residues of RSV phosphoprotein P with Ser232 and Ser237 as O-phosphoserines; source: bought: GeneCust (synthetic peptide, >95% purity)
For B2, the IC50 in experiment [3] stood at 6.9 ± 1.2 µM.
